Source: publication PMC2910040

What was measured:
[1] = target: T1, BLMHM (BLM helicase module) (Homo sapiens, UniProt P54132 642-1290); experiment: stopped-flow mdADP fluorescence amplitude titration
[2] = target: T1, BLMHM (BLM helicase module); experiment: fluorescence titration
[3] = target: T1, BLMHM (BLM helicase module); experiment: stopped-flow mdADP fluorescence amplitude titration; remark: listed apart in the source
[4] = target: T1, BLMHM (BLM helicase module); experiment: HEX fluorescence change
[5] = target: T1, BLMHM (BLM helicase module); experiment: stopped-flow mdADP fluorescence amplitude titration; remark: listed apart in the source

T1 sequence (P54132 642-1290): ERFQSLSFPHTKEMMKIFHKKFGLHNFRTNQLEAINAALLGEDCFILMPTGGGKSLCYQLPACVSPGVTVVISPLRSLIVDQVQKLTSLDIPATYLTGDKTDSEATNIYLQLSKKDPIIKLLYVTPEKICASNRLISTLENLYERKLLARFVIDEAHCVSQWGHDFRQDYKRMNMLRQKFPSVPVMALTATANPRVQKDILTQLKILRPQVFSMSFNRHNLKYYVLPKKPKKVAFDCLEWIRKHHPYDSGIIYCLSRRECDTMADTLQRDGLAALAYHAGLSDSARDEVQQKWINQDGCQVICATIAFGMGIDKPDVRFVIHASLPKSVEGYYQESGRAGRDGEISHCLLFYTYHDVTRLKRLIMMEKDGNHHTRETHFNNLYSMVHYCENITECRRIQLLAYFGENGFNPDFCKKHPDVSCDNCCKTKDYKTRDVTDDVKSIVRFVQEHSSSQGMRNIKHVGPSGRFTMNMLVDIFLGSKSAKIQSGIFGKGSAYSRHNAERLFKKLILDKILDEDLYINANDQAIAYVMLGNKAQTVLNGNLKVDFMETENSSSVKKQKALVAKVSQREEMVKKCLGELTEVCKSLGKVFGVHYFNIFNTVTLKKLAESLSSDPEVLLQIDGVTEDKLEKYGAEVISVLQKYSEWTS

B1: dT54 (ssDNA)
DNA: TTTTTTTTTTTTTTTTTTTTTTTTTTTTTTTTTTTTTTTTTTTTTTTTTTTTTT
Binder B1 has a Kd [1] of under 100 nM.

B2: DNA_2 (5'-HEX-DNA_54mer) (ssDNA)
DNA: CGTTGCGCAATTAAGCTCTAAGCCATCCGCAAAAATGACCTCTTATCAAAAGGA
Binder B2 has a Kd [2] of 100 ± 20 nM.

B3: dT18 (ssDNA)
DNA: TTTTTTTTTTTTTTTTTT
For B3, the Kd [3] was under 100 nM.

B4: 5'-HEX-dT20 (ssDNA)
DNA: TTTTTTTTTTTTTTTTTTTT
B4: binds [4].

B5: dT36 (ssDNA)
DNA: TTTTTTTTTTTTTTTTTTTTTTTTTTTTTTTTTTTT
B5 showed a Kd [5] of under 100 nM.
